Measured values taken from publication PMC5564220.

What was measured:
[1] = molecular target: Rvb1/his-Rvb2 complex (S. cerevisiae) (UniProt Q03940); experiment: native MS
[2] = molecular target: Rvb1ΔDII/Rvb2ΔDII complex (S. cerevisiae) (UniProt Q03940); experiment: native MS

Sequence of Rvb1ΔDII/Rvb2ΔDII complex (Q03940 whole entry, stated change not applied): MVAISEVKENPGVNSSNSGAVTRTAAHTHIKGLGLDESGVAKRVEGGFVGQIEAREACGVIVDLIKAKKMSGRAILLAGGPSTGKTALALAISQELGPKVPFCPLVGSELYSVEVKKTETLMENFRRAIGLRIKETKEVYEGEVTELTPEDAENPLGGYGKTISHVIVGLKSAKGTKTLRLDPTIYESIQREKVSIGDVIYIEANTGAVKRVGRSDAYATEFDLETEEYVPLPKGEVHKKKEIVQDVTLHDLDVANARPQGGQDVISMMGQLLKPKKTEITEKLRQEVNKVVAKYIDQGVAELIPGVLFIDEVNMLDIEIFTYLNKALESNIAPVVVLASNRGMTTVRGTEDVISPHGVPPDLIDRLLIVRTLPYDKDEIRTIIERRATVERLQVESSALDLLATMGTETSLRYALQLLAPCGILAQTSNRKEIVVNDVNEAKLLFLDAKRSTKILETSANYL
Sequence of Rvb1ΔDII/Rvb2ΔDII complex (Q12464 whole entry, stated change not applied): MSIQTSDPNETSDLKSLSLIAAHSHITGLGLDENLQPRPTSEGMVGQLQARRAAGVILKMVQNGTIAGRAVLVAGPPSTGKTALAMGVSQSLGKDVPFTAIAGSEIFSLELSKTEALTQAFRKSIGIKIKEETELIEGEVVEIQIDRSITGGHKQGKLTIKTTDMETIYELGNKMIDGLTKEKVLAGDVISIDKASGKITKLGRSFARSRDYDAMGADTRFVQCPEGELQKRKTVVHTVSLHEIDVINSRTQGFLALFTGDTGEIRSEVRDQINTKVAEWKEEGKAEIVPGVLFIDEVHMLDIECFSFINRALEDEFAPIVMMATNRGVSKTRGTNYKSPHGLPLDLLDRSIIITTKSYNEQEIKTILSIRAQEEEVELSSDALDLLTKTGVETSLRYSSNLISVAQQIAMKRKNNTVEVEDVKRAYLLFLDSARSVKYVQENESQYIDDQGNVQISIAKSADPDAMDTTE

percent of hexamers in the population [1] | percent of the dodecamer dissociated into hexamers [1] | percent of dodecamer in the population [2] | Substance
0% | 14% |  | Rvb1/his-Rvb2 complex (from UniProt Q03940 1-463; Q12464 1-471)
 |  | 3% | Rvb1ΔDII/Rvb2ΔDII complex (from UniProt Q03940 1-463; Q12464 1-471)
